Reference: US20060269536A1 (UNIVERSITE DE LAUSANNE, published 2006)
Substitutions are numbered along the chain they refer to.

B1: rACT6.2 (designed binder)
chain: MRGSHHHHHHSRHPNSPLDEENLTQENQDRGTHVDLGLASANVDFAFSLYKQLVLKAPDKNVIFSPLSISTALAFLSLGAHNTTLTEILKGLKFNLTETSEAEIHQSFQHLLRTLNQSSDELQLSMGNAMFVKEQLSLLDRFTEDAKRLYGSEAFATDFQDSAAAKKLINDYVKNGTRGKITDLIKDLDSQTMMVLVNYIFFKAKWEMPFDPQDTHQSRFYLSKKKWVMVPMMSLHHLTIPYFRDEELSCTVVELKYTGNASALFILPDQDKMEEVEAMLLPETLKRWRDSLEFREIGELYLPKFSISRDYNLNDILLQLGIEEAFTSKADLSGITGARNLAVSQVVHKAVLDVFEEGTEASAATAVKITRRSIDVETRTIVRFNRPFLMIIVPTDTQNIFFMSKVTNPKQA
notes: Recombinant human α1-antichymotrypsin variant, RSL P3-P'3 = TRRSID; N-terminal His tag, E. coli TG1; also called MD62; MD 62
B2: rACT6.1 (designed binder)
chain: B1 chain with T370M, R371T, I374N, D375A
notes: N-terminal His tag, E. coli TG1; also called MD61; MD 61
B3: rACTWT (recombinant wild type α1-antichymotrypsin) (other, human)
chain: HHHHHHNSPLDEENLTQENQDRGTHVDLGLASANVDFAFSLYKQLVLKAPDKNVIFSPLSISTALAFLSLGAHNTTLTEILKGLKFNLTETSEAEIHQSFQHLLRTLNQSSDELQLSMGNAMFVKEQLSLLDRFTEDAKRLYGSEAFATDFQDSAAAKKLINDYVKNGTRGKITDLIKDLDSQTMMVLVNYIFFKAKWEMPFDPQDTHQSRFYLSKKKWVMVPMMSLHHLTIPYFRDEELSCTVVELKYTGNASALFILPDQDKMEEVEAMLLPETLKRWRDSLEFREIGELYLPKFSISRDYNLNDILLQLGIEEAFTSKADLSGITGARNLAVSQVVHKAVLDVFEEGTEASAATAVKITLLSALVETRTIVRFNRPFLMIIVPTDTQNIFFMSKVTNPKQA
notes: Serpin; Expressed in E. coli TG1 from pQE-9 with an N-terminal His tag; also called ACTWT (LL↓SA); wild type rACT
B4: rACT8.20 (designed binder)
chain: B1 chain with R371L, I374R, D375A
B5: rACT8.3 (designed binder)
chain: B1 chain with T370R, R371G, I374E, D375L
B6: rACT6.7 (designed binder)
chain: B1 chain with T370K, R371L, S373T, I374T, D375L
B7: ACT5.18 (designed binder)
chain: B1 chain with R371E, S373V, I374S, D375P
B8: rACTPCI (MD CI) (designed binder)
chain: B1 chain with R371F, I374A, D375L

What follows are binders tested against T1, hK3 (PSA) (human, UniProt P07288 25-261) (assay: Western blot of hK3-ACT complex, anti-His antibody (FIG. 6B)).
T1 construct: Active enzyme purified from human semen; also called Prostate Specific Antigen; PSA (hK3)
Experimental: For each variants of ACT, 1 μg of inhibitor was incubated with 100 ng of either hK2 or hK3 during 1 hour at 37° C. under physiological conditions.

T1 sequence (P07288 25-261 limits assumed): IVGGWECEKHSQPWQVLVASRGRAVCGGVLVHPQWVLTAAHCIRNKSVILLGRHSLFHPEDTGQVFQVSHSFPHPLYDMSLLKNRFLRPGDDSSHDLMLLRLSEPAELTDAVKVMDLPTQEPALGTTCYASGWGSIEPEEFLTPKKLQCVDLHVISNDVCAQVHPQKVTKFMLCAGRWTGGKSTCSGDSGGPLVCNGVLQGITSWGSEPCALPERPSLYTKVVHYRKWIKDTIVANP

Row | Binder | binding result
1 | B1 | no binding
2 | B2 | no binding

What follows are binders tested against urokinase plasminogen activator (uPA) (UniProt P00749 21-431, limits assumed) (assay: cell-based or functional assay).

Row | Binder | Inhibition % (residual enzyme activity, fluorescent substrate) [%]
3 | B3 | 0
4 | B4 | 0
5 | B5 | 0
6 | B6 | 0
7 | B7 | 0
8 | B1 | 0
9 | B2 | 0

Each binder was assayed against T1, hK3 (PSA) (assay: cell-based or functional assay).

Row | Binder | Inhibition % (residual enzyme activity, CFP-TFRSA-YFP substrate, 90 min at 37°) [%]
10 | B3 | 80
11 | B5 | 0
12 | B6 | 0
13 | B7 | 0
14 | B1 | 0
15 | B2 | 0

What follows are binders tested against human glandular kallikrein hK2 (human, UniProt P20151 25-261) (assay: cell-based or functional assay).

Row | Binder | Inhibition % (residual enzyme activity, fluorescent substrate) [%]
16 | B3 | 0
17 | B4 | 95
18 | B5 | 100
19 | B6 | 100
20 | B7 | 73
21 | B1 | 100
22 | B2 | 100

The binders below were run against human kallikrein hK1 (human, UniProt P06870 25-262) (assay: cell-based or functional assay).
Chain of human kallikrein hK1 (P06870 25-262): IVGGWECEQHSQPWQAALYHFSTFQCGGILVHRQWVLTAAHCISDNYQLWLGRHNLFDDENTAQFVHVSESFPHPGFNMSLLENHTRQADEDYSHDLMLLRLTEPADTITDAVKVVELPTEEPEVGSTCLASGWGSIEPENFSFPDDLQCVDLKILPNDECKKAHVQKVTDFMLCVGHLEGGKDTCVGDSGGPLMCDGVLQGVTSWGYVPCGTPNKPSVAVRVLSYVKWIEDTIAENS

Row | Binder | Inhibition % (residual enzyme activity, fluorescent substrate) [%]
23 | B3 | 0
24 | B4 | 0
25 | B5 | 0
26 | B6 | 0
27 | B7 | 0
28 | B1 | 0
29 | B2 | 0

Each binder was assayed against human plasma kallikrein (PK) (human, UniProt P03952 20-638) (assay: cell-based or functional assay).
Chain of human plasma kallikrein (PK) (P03952 20-638 limits assumed): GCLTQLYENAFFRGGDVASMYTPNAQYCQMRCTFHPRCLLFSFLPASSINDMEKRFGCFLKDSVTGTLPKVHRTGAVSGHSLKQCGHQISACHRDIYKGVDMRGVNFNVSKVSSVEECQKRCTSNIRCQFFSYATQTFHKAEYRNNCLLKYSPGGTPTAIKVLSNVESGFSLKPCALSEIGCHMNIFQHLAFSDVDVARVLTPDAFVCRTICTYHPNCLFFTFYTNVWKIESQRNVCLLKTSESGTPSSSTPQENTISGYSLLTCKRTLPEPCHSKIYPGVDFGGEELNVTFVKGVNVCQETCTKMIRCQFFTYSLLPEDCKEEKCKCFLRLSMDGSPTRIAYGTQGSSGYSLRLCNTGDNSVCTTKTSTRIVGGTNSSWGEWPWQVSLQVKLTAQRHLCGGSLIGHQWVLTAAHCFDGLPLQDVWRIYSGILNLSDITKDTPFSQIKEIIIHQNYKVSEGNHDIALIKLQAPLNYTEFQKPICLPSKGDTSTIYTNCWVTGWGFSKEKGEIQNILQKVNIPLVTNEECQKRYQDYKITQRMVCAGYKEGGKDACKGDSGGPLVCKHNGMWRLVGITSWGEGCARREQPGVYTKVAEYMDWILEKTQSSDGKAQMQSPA

Row | Binder | Inhibition % (residual enzyme activity, fluorescent substrate) [%]
30 | B3 | 0
31 | B4 | 54
32 | B5 | 0
33 | B6 | 36
34 | B7 | 0
35 | B1 | 100
36 | B2 | 100

These binders were tested against T2, human neutrophil elastase (HNE) (human, UniProt P08246 30-247, limits assumed) (assay: cell-based or functional assay).
T2 sequence (looked up): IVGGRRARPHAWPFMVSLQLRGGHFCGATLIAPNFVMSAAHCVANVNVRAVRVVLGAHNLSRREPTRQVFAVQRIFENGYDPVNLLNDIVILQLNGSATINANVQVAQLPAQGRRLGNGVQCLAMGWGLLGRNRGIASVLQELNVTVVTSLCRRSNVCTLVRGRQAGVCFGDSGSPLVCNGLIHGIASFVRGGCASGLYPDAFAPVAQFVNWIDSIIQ

Row | Binder | Inhibition % (residual enzyme activity, fluorescent substrate) [%]
37 | B3 | 15
38 | B4 | 30
39 | B5 | 0
40 | B6 | 0
41 | B7 | 0
42 | B1 | 0
43 | B2 | 60

What follows are binders tested against T3, Human chymotrypsin (Chtr) (human, UniProt P17538 19-263) (assay: cell-based or functional assay).
T3 sequence (P17538 19-263): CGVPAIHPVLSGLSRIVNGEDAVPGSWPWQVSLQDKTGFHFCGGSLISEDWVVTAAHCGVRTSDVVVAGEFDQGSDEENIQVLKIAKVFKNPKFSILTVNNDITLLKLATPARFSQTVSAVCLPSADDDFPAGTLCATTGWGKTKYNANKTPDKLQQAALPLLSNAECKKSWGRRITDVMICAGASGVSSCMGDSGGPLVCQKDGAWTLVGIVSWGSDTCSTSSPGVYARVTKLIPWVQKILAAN

Row | Binder | Inhibition % (residual enzyme activity, fluorescent substrate) [%]
44 | B3 | 100
45 | B4 | 66
46 | B5 | 0
47 | B6 | 0
48 | B7 | 0
49 | B1 | 0
50 | B2 | 0

The binders below were run against T3, Human chymotrypsin (Chtr) (assay: residual protease activity against [I]o/[E]o, linear regression, x intercept).
Experimental: The stoichiometry of inhibition (SI) values were determined for the inhibition of rACTWT and its variants with hK2 and different other enzymes. An initial test was made with a molar excess of rACT (100 fold) over hK2, PSA, hK1, chymotrypsin (Chtr), plasma kallikrein (PK), urokinase (uPA) and human neutrophile elastase (HNE) enzymes. The reaction was carried out for 30 min at 25° C. (90 min at 37° C. for PSA) in reaction buffer (50 mM Tris pH 7.5, 150 mM NaCl, 0.05% Triton X-100, 0.01% BSA) and residual enzyme activity was measured by adding fluorescent substrates (Z-Phe-Arg-AMC for hK1, hK2 and PK, Suc-Ala-Ala-Pro-Phe-AMC for Chtr, Z-Gly-Gly-Arg-AMC for uPA, MeOSuc-Ala-Ala-Pro-Val-AMC for HNE, and CFP-TFRSA-YFP for PSA). Activity of enzyme in presence of inhibitors was compared to uninhibited reaction. For reactions where an inhibition was observed, SI was determined by incubating different concentrations of recombinant serpins. […]
In order to determine the SI values of all the recombinant variants, Applicants have incubated hK2 (5 nM) with different concentrations (6.25-500 nM) of rACT_{8.20} (x), rACT_{6.2} (□), rACT_{8.3} (Δ), rACT_{6.7} (⋄), rACT_{6.1} ( ), rACT_{5.18} (∘), rACTWT (+), at 25° C. for 30 min in reaction buffer. […] The SI was determined using linear regression analysis to extrapolate the I/E ratio (i.e. the x intercept).

Row | Binder | SI (stoichiometry of inhibition)
51 | B3 | 2

These binders were tested against Trypsin (assay: inhibitory profile of MDCI; method as in example 1).

Row | Binder | kon [M⁻¹ s⁻¹]
52 | B8 | 1.13e+06
